Reference: paper PMC11904528, “Discovery and preclinical development of a SdAb-based CAR-T technology for targeting CD33 in AML” (Molecular Therapy Oncology, 2025)
Where two headings read alike, the source gives them in different places.

Experiments:
[1] = target: T1, CD33 recombinant ectodomain (His-tagged) (Homo sapiens, UniProt P20138); assay: ELISA; CD33-coated plates; SdAbs titrated and detected with anti-HA HRP; relative affinities (EC50)
T1 construct: CD33 (Siglec-3), human, recombinant ectodomain; The methods name the catalogue number for the immunogen; In SPR it was captured by its His tag on NTA and then cross-linked with EDC/NHS; also called Siglec-3; extracellular domain (ECD) of human CD33; source: bought: SinoBiological #12238-H08H; not shown: His tag, C-terminal, kept

[2] = target: T1, CD33 recombinant ectodomain (His-tagged); assay: SPR; Biacore X100, NTA chip; His-tagged CD33 ectodomain captured on nickel, cross-linked with EDC/NHS, nickel stripped with EDTA (388 RU); SdAbs as analytes at 1,000-12.3 nM; single-cycle kinetics; HBS-EP+; 10 uL/min, contact 300 s, dissociation 600 s; 1:1 binding model
[3] = target: CD33 recombinant ectodomain (His-tagged) (human) (UniProt P20138); assay: ELISA; CD33-coated plates; SdAbs titrated and detected with anti-HA HRP; relative affinities (EC50)
[4] = target: T2, Biotinylated CD33 (bio-CD33) (Homo sapiens, UniProt P20138, biotin); assay: BLI; Octet N1, streptavidin SAX2 sensors; bio-CD33 immobilised at 100 nM; in-tandem epitope binning: first antibody 400 nM, then a mixture of 400 nM first and 200 nM second antibody; PBS; settings: both partners purified
T2 construct: CD33 (Siglec-3), biotinylated

[5] = target: CD33 recombinant ectodomain (His-tagged) (human) (UniProt P20138); assay: SPR; Biacore X100, NTA chip; His-tagged CD33 ectodomain captured on nickel, cross-linked with EDC/NHS, nickel stripped with EDTA (388 RU); SdAbs as analytes at 1,000-12.3 nM; single-cycle kinetics; HBS-EP+; 10 uL/min, contact 300 s, dissociation 600 s; 1:1 binding model
[6] = target: T1, CD33 recombinant ectodomain (His-tagged)

Chain of CD33 recombinant ectodomain (His-tagged) (human) (P20138 18-259): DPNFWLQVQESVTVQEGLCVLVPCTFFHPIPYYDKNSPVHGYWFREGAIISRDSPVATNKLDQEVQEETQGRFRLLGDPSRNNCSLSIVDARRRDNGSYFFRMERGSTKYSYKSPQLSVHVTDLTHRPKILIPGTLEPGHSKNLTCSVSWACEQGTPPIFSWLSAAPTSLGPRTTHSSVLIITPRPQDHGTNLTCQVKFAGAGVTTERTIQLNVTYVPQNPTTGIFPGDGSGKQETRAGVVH
T1 sequence (P20138 18-259): as above
T2 sequence (P20138 whole entry, looked up, tested part not stated): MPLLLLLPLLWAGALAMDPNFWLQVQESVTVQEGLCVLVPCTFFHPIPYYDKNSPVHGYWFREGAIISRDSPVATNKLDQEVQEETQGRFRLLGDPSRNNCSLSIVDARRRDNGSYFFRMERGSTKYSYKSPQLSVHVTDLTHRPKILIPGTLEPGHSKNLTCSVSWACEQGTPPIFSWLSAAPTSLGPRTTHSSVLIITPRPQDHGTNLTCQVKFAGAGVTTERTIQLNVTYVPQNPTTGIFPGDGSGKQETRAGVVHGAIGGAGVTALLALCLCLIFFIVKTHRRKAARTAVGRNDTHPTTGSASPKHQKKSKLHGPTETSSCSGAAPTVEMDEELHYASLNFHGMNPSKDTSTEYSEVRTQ

Binder	EC50 ([1]; both partners purified)	Kd ([2]; both partners purified)	koff ([2]; both partners purified)	kon ([2]; both partners purified)	also measured
Nb8 (VHH, llama VHH; From a phage display library of a llama immunised with CD33; also called SdAb Nb8; source: E. coli expression strains (pETMod, OmpA periplasmic signal), purified (IMAC, IEC)) VHH: EVQLVESGGGLVQDGGSLRLSCAASGRTFSSYVMGWFRQAPGKEREFVAAITWSGGSTYYADSVKGRFTISRDNAKNTVYLQMNSLKPEDTAVYYCAAFELGGGSYYYPDPNEYDYWGQGTQVTVSS	3.99 nM	14.4 nM	0.000356 s⁻¹	24800 M⁻¹ s⁻¹	
Nb3 (VHH, llama VHH; From a phage display library of a llama immunised with CD33; also called SdAb Nb3; source: E. coli expression strains (pETMod, OmpA periplasmic signal), purified (IMAC, IEC)) VHH: EVQLVESGGGLVQAGGSLSLSCAASGRTFSSYVMGWFRQAPGKEREFVAALTWSGGSTYYGDSAKGRFTISRDNAKNTVYLQMNSLKPEDTADYYCAAAALEGGAYHIATMSTYNYWGQGTQVTVSS					EC50 [3]: 16.7 nM; binding result [4]: binds; Kd [5]: 115 nM; koff [5]: 0.0017 s⁻¹; kon [5]: 14700 M⁻¹ s⁻¹
Nb16 (VHH) VHH: EVQLVESGGGLVQTGGSLRLSCAASGRTFSPLAMGWFRQAPGREREFVAGITWSGGSLYYGDFVKGRFTISRDAAKNTLYLQMNSLKPEDTAVYYCAARDYSGDSNFQVTRPSEWDHWGQGTQVTVSS					Kd [6]: 4.18 nM; EC50 [1]: 1.91 nM; Kd [2]: 4.18 nM; koff [2]: 4.64e-05 s⁻¹; kon [2]: 11100 M⁻¹ s⁻¹
Nb17 (VHH, llama VHH; From a phage display library of a llama immunised with CD33; also called SdAb Nb17; source: E. coli expression strains (pETMod, OmpA periplasmic signal), purified (IMAC, IEC)) VHH: QVQLQESGGGLVQTGGSLRLSCAVSGSTFSDYVIGWFRQAPGKERDFVAAITWSGGSTYYADSVKGRFIISRDNAKNTVYLQMNSLKPEGTAVYYCAALQLKGGSYYYPAPEEYSYWGQGTQVTVSS	4.05 nM	4.99 nM	8.24e-05 s⁻¹	16500 M⁻¹ s⁻¹	
Nb1 (VHH, llama VHH; From a phage display library of a llama immunised with CD33; also called SdAb Nb1; source: E. coli expression strains (pETMod, OmpA periplasmic signal), purified (IMAC, IEC)) VHH: QVQLQESGGGLVQVGGSLRLSCAASGRAFSTDIMAWFRQAPGKEREFVAAIKWNADNTYDTNSVKGRFTISRDNAKNTNYLEVNSLKPEDTAVYYCASGFSSRPYSDSDSRKYIYWGQGTQVTVSS	6.4 nM	29.9 nM	0.0011 s⁻¹	36800 M⁻¹ s⁻¹	
